Results taken from US7842460B2, “Method for assessing proteolytic enzyme activity using ubiquitin fusion substrate” (Progenra Inc., priority 2004, dated 2010).

Key:
[1] = target: T1, yeast ULP1 protein (SUMO protease catalytic domain) (Saccharomyces cerevisiae, UniProt Q02724); experiment: Cleavage of SUMO-GPATase by yeast ULP1 (SDS-PAGE); format: biochemical; conditions: 3 hours
T1 construct: treatment with the yeast ULP1 protein (SUMO protease catalytic domain)
T1 sequence (Q02724 432-621 limits assumed): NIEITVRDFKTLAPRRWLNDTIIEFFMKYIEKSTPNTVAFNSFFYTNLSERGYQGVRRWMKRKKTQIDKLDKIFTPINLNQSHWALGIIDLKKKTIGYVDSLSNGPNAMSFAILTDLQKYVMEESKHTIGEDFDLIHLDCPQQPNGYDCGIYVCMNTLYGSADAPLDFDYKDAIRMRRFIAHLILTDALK
Protocol: The SUMO protein was cleaved from a SUMO-GPATase fusion protein by treatment with the yeast ULP1 protein (SUMO protease catalytic domain). Approximately 5 μg SUMO-GPATase were incubated at 30° C. for 3 hours with increasing concentrations of the ULP1 enzyme in a reaction mixture containing 50 mM Tris-HCl pH 7.5, 1 mM EDTA, 10 mM DTT. The reaction was quenched by addition of SDS-PAGE sample buffer, heated, and loaded directly on a 12% SDS-polyacrylamide gel, and electrophoresed. After electrophoresis, the gel was stained to visualize the proteins. […] This inability of the ULP1 enzyme to cut the fusion protein may reflect the occurrence of steric hindrance around the cleavage site, or some partial modification of the junction sequence, e.g. oxidation of the Cysteine residue at the amino-terminal end of GPATase.

ULP1 SUMO protease = target: T2, ULP1 SUMO protease (Saccharomyces cerevisiae, UniProt Q02724); experiment: In vitro GPATase activity assay (coupled GDH assay) of fusion -/+ Ulp1; format: biochemical, yeast
T2 construct: treatment with the yeast ULP1 protein (SUMO protease catalytic domain)
T2 sequence (Q02724 432-621 limits assumed): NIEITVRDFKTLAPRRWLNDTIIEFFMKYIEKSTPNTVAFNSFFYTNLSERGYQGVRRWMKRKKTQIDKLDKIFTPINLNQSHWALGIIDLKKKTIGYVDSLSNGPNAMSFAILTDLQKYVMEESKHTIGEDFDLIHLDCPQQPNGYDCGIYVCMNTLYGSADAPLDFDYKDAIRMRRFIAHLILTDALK
From the text: GPATase, a glutaminase enzyme, hydrolizes 5-phospho ribosyl pyrophosphate (PRPP) […], 5-phosphoribosyl-(b)1-amine (PRA) and pyrophosphate (PPi). This glutaminase reaction was monitored by measuring the production of glutamate by means of a coupled glutamate dehydrogenase (GDH) assay under standard reaction conditions described by Messenger and Zalkin (1979).
[…]
The coupled GDH assay employed to assess GPATase activity was examined for accuracy. Increasing amounts of the purified SUMO-GPATase fusion protein, either untreated or cleaved by the ULP1 SUMO protease, were incubated in the presence of glutamine and PRPP for a fixed period of time, and the completed reaction was then used as substrate in a GDH assay. […] This is particularly so at enzyme concentrations of 1 μg or less. Thus, the amount of NAD^+ reduced in the GDH reaction directly correlates with the amount of active GPATase enzyme in the initial reaction. In addition, treatment with ULP1 results in at least a 10-fold increase in the glutaminase activity of GPATase, despite the fact that only partial cleavage of SUMO-GPATase has been observed thus far.

B1: SUMO-GPATase: Fusion of SUMO (Smt3) C-terminal Gly-Gly to mature E. coli glutamine phosphoribosylpyrophosphate amidotransferase N-terminus (protein)
chain: CGIVGIAGVMPVNQSIYDALTVLQHRGQDAAGIITIDANNCFRLRKANGLVSDVFEARHMQRLQGNMGIGHVRYPTAGSSSASEAQPFYVNSPYGITLAHNGNLTNAHELRKKLFEEKRRHINTTSDSEILLNIFASELDNFRHYPLEADNIFAAIAATNRLIRGAYACVAMIIGHGMVAFRDPNGIRPLVLGKRDIDENRTEYMVASESVALDTLGFDFLRDVAPGEAIYITEEGQLFTRQCADNPVSNPCLFEYVYFARPDSFIDKISVYSARVNMGTKLGEKIAREWEDLDIDVVIPIPETSCDIALEIARILGKPYRQGFVKNRYVGRTFIMPGQQLRRKSVRRKLNANRAEFRDKNVLLVDDSIVRGTTSEQIIEMAREAGAKKVYLASAAPEIRFPNVYGIDMPSATELIAHGREVDEIRQIIGADGLIFQDLNDLIDAVRAENPDIQQFECSVFNGVYVTKDVDQGYLDFLDTLRNDDAKAVQRQNEVENLEMHNEG
modifications: left off: large carriers
notes: Fusion of SUMO (Smt3) C-terminal Gly-Gly to mature E. coli glutamine phosphoribosylpyrophosphate amidotransferase N-terminus
[1]; approx. 5 μg SUMO-GPATase, 30° C.
  amount of Ulp1 at which cleavage of the fusion was demonstrated: 0.009 units
[1]; with as much as 78.3 Units Ulp1, 30° C.
  completeness of cleavage: cleavage was never fully achieved
ULP1 SUMO protease; ULP1-cleaved vs untreated fusion, only partial cleavage
  increase in the glutaminase activity of GPATase on treatment with ULP1: ≥ 10 fold
ULP1 SUMO protease; absence of Ulp1
  absorbance at OD 363 in GDH assay (GPATase activity): this increase of absorbance did not occur
ULP1 SUMO protease; fusion incubated 30 minutes with Ulp1
  absorbance at OD 363 in GDH assay (GPATase activity): an increase is absorbance
